Source: article PMC10808743, “Generation of human TMEM16F-specific affibodies using purified TMEM16F” (Frontiers in Molecular Biosciences, 2023)

Biological target: the molecule itself
Experiment: SEC; 40 μg TMEM16F (0.4 mg/mL) incubated with 40 μg #50 affibody (0.5 mg/mL) for 2 h at 4°C, separated on Superose 6 FPLC; fractions around 14.8 mL analysed by SDS-PAGE and Western blot

B1: human TMEM16F (hTMEM16F) variant 1, SBP-tagged, purified (natural protein, UniProt Q4KMQ2-1 1-910, looked up)
chain: MKKMSRNVLLQMEEEEDDDDGDIVLENLGQTIVPDLGSLESQHDFRTPEFEEFNGKPDSLFFNDGQRRIDFVLVYEDESRKETNKKGTNEKQRRKRQAYESNLICHGLQLEATRSVLDDKLVFVKVHAPWEVLCTYAEIMHIKLPLKPNDLKNRSSAFGTLNWFTKVLSVDESIIKPEQEFFTAPFEKNRMNDFYIVDRDAFFNPATRSRIVYFILSRVKYQVINNVSKFGINRLVNSGIYKAAFPLHDCKFRRQSEDPSCPNERYLLYREWAHPRSIYKKQPLDLIRKYYGEKIGIYFAWLGYYTQMLLLAAVVGVACFLYGYLNQDNCTWSKEVCHPDIGGKIIMCPQCDRLCPFWKLNITCESSKKLCIFDSFGTLVFAVFMGVWVTLFLEFWKRRQAELEYEWDTVELQQEEQARPEYEARCTHVVINEITQEEERIPFTAWGKCIRITLCASAVFFWILLIIASVIGIIVYRLSVFIVFSAKLPKNINGTDPIQKYLTPQTATSITASIISFIIIMILNTIYEKVAIMITNFELPRTQTDYENSLTMKMFLFQFVNYYSSCFYIAFFKGKFVGYPGDPVYWLGKYRNEECDPGGCLLELTTQLTIIMGGKAIWNNIQEVLLPWIMNLIGRFHRVSGSEKITPRWEQDYHLQPMGKLGLFYEYLEMIIQFGFVTLFVASFPLAPLLALVNNILEIRVDAWKLTTQFRRLVPEKAQDIGAWQPIMQGIAILAVVTNAMIIAFTSDMIPRLVYYWSFSVPPYGDHTSYTMEGYINNTLSIFKVADFKNKSKGNPYSDLGNHTTCRYRDFRYPPGHPQEYKHNIYYWHVIAAKLAFIIVMEHVIYSVKFFISYAIPDVSKRTKSKIQREKYLTQKLLHENHLKDMTKNMGVIAERMIEAVDNNLRPKSE
notes: Human TMEM16F variant 1 (anoctamin-6), cDNA clone NM_001025356.2 bought from Genescript; called 'purified whole TMEM16F protein' in the discussion; In one BLI experiment the same protein was incorporated into nanodiscs (MSP 2N2, Addgene #29520; POPC:POPG 3:1; TMEM16F:MSP:lipid 1:5:100) under detergent-free conditions; also called purified human TMEM16F protein; TMEM16F-nanodisc complex (when …)
  stoichiometry N: 2
